From PMC5727057
Where “and” joins values, the source holds several entries; their conditions need not be identical. Identical values can stand only once. Like-named read-outs stand apart in the source and are kept apart here.

How the values were obtained:
[1] = biological target: GmSKRP1 (protein used for isothermal titration calorimetry) (soybean); assay: ITC; 40 μM GmSKRP1 in the cell titrated with 400 μM PsAvr3c from the syringe; 25 °C; 20 mM HEPES pH 7.5, 200 mM NaCl; one-site binding model; three independent experiments
[2] = biological target: GmSKRP1 (protein used for isothermal titration calorimetry) (soybean); assay: as above; remark: listed apart in the source

PsAvr3c (protein used for isothermal titration calorimetry) (natural protein)
Kd [1]: 3.35 µM
Kd [2]: 3.38 µM and 3.52 µM and 3.14 µM
